Biological target: Brucella abortus peptidoglycan hydrolase inhibitor A (PhiA), mature periplasmic form (Brucella abortus)
Assay: SEC-MALS

“Brucella abortus peptidoglycan hydrolase inhibitor A (PhiA), mature periplasmic form (natural protein)” showed a stoichiometry N of 4.

From paper PMC8334348
